This is an account of results in the supplement of paper PMC10201428.

The subject of data set [1] is VchCAST RNA-guided transposition machinery (E. coli BL21(DE3) host, lacZ target). The data set is described as follows: relative integration efficiency (T-RL orientation) vs wild-type transposon end (log2 (normalized fold change)); transposon end mutated: left end; higher = more efficient transposition. Put shortly:
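In E. coli BL21(DE3), a T7-driven effector plasmid was paired with a pUC57 mini-transposon donor containing 1549 left-end or 1849 right-end barcoded transposon variants. Cells grew on plates with 0.1 mM IPTG at 37°C for 18 h. Relative integration efficiency was derived from Illumina reads of genomic integration junctions against input plasmids, as a log-transformed output/input barcode fold change normalised to reference barcodes.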

Data set [2] shares this test system. The data set is described as follows: relative integration efficiency (T-LR orientation) vs wild-type transposon end (log2 (normalized fold change)); transposon end mutated: left end; higher = more efficient transposition. The procedure: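 Pooled, barcoded VchCAST (Tn6677) mini-transposon donor libraries; each variable transposon-end sequence sits in a fixed pDonor mini-transposon context (10-bp barcode and cargo not included). Left- or right-end libraries were co-transformed with pEffector (TniQ-Cascade, TnsABC, lacZ crRNA, T7, 0.1 mM IPTG) into E. coli BL21(DE3) and grown 18 h at 37 C. T-LR and T-RL junction amplicons were sequenced; output/input barcode fold change was normalised to the mean of four wild-type barcodes and log2-transformed. Two biological replicates; zero-count/undetected variants carry floor values (-10 / -15), censored here. Barcode uncoupling by PCR recombination adds noise.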

± gives the standard deviation of the averaged measurements.

In the case of “AATGTTGTTGATGCACCCATAAATTGATATTGCATAATTATTTATAATCAGCAACTTAACCACAAAACAACCATAAGTTGATATTTTACAAAAGTTGGTATTCAACTATAAAATGTGAATCGAGTATTTCAGCAAAACTACTGCAGTAAGAA”, the “relative integration efficiency (log2)” value in data set [1] was -3.46 ± 1.6; in data set [2], -1.34 ± 1.4. Taken in the same sequence, the figures for “AATGTTGTTGATGCAACCATCCCTGTCGCGGGCCGCCGGCGGGCGCCGACTACCAGGCCAACACCCCACCAACGCGCGGTCGCGAGACACCCCACCAACGCCTGGTCGCGGGGGTGTCCGATCTGATTTCAGCAAAACTACTGCAGTAAGAA” were under -10 and -9.26 ± 0.31. Taken in the same sequence, the figures for “AATGTTGTTGATGCAACCATAAAGTGATATTTAATAATTATTTATAATCAGCAACTTAACCACAAAACAACCATATATTGATATCTACAAAACAACCATAAGTTGATATTTTTGTGAATCGAGTATTTCAGCAAAACTACTGCAGTAAGAAA” were -1.23 ± 0.67 and -0.176 ± 0.54. Turning to “AATGTTGTTGATGCAACCATAAAGTGATATTTAATAATTATTTATAATCAGCAACTTAACCACAAAATGTGAATCGAGTATTTCAGCAAAACTACTGCAGTAAGAATCAACCATATATTGATATCTCACAAAACAACCATAAGTTGATATTT”, the “relative integration efficiency (log2)” value is -5.36 ± 1.6 in data set [1] and -5.03 ± 3.6 in data set [2]. For the sequence “AATGTTGTTGATGCAACCATAAAATGATAATTAATAATTATTTATAATCAGCAACTTAACCACAAAATAATTATCATTTTATGGTTGACAAAATAATTATCATTTTATGGTTGTGTGAATCGAGTATTTCAGCAAAACTACTGCAGTAAGAA”, the “relative integration efficiency (log2)” value in data set [1] was -6.03 ± 2.2; in data set [2] it was -0.969 ± 0.98. Consider “AATGTTGTTGATGCAACCATACCTGTATATTTAATAATTATTTATAATCAGCAACTTAACCACAAAACAACCATAGCGGTATATCTCACAAAACAACCATACTGGTATATTTTTGTGAATCGAGTATTTCAGCAAAACTACTGCAGTAAGAA”, for which the “relative integration efficiency (log2)” value in data set [2] is under -10. With “AATGTTGTTGATGCAACCATAAAGTGATATTTACAACCATATATTGATATCTCTCACAACCATAAGTTGATATTTCTCTGATCATAGTCAGACCAACATTGCTACGACCCGTATTCGCACCGACACTGTGAATCGAGTATTTCAGCAAAACT”, the results for the “relative integration efficiency (log2)” value in data set [1] and in data set [2] were -2.28 ± 0.64 and 2.61 ± 1.1, respectively. Taken in the same sequence, the figures for “AATGTTGTTGATGCAACCATAAAGTGATATTTAATAATTATTTATCAACCATATATTGATATCTCACAAAACAACCATAAGTTGATATTTTTGTGAATCGAGTATTTCAGCAAAACTACTGCAGTAAGAAAGTTACTTCGTGGTATGGGAGG” were -6.15 ± 0.83 and -3.55 ± 2.2.

“AATGTTGTTGATGCAACCATAAAGTGATATTTACTTAAGCGAGTCTGTCCTTTCTGACTGTCGATCCCAACCATATATTGATATCTCACAAAACAACCATAAGTTGATATTTTTGTGAATCGAGTATTTCAGCAAAACTACTGCAGTAAGAA”: the “relative integration efficiency (log2)” value in data set [1] was -3.4 ± 1.1; in data set [2] it was -3.45 ± 1.6. Taken in the same sequence, the figures for “AATGTTGTTGATGCAACCATAAAGTGATATTTAATAATTATTTATAATCACAACCATATATTGATATCTCACAAAACAACCATAAGTTGATATTTTTGTGAATCGAGTATTTCAGCAAAACTACTGCAGTAAGAAAGTTACTTCGTGGTATG” were -8.21 ± 0.54 and -5.27 ± 1. Turning to “AATGTTGTTGATGCAACCATAAAGTGATATTTAATAATTATTCAACCATATATTGATATCTCACAAAACAACCATAAGTTGATATTTTTGTGAATCGAGTATTTCAGCAAAACTACTGCAGTAAGAAAGTTACTTCGTGGTATGGGAGGATC”, the “relative integration efficiency (log2)” value in data set [2] is -5.27 ± 0.11.

As to “AATGTTGTTGATGTAATTATCATTTTATGGTTGATAATTATTTATAATCAGCAACTTAACCACAAAACAACCATAAAATGATAATTAACAAAACAACCATAAAATGATAATTATGTGAATCGAGTATTTCAGCAAAACTACTGCAGTAAGAA”, the “relative integration efficiency (log2)” value in data set [2] was under -10.

Turning to “AATGTTGTTGATGCAACCATAAAGTGATATTTGCTAGCATTATACCTAGGACTGAGCTAGCTGTCAACAACCATATATTGATATCTCACAAAACAACCATAAGTTGATATTTTTGTGAATCGAGTATTTCAGCAAAACTACTGCAGTAAGAA”, the “relative integration efficiency (log2)” value in data set [2] was under -10. Same read-out and setting: with “AATGTTGTTGATGCAACCATAAAGTGATATTTAATAATTATTTATAATCAGCACAACCATATATTGATATCTCACAAAACAACCATAAGTTGATATTTTTGTGAATCGAGTATTTCAGCAAAACTACTGCAGTAAGAAAGTTACTTCGTGGT” the figure was -4.94 ± 0.63; with “AATGTTGTTGATGTAATTATCATTTTATGGTTGATAATTATTTATAATCAGCAACTTAACCACAAAATAATTATCATTTTATGGTTGACAAAACAACCATAAAATGATAATTATGTGAATCGAGTATTTCAGCAAAACTACTGCAGTAAGAA”, under -10. For “AATGTTGTTGATGCACAACGCCCTGTCGCGGGCCGCCGGCGGGCGCCGACTACCAGGCCAACACCCCACCAACGCGCGGTCGCGAGACACCCCACCAACGCCTGGTCGCGGGGGTGTCCGATCTGATTTCAGCAAAACTACTGCAGTAAGAA”, the “relative integration efficiency (log2)” value in data set [2] is under -10.

In the case of “AATGTTGTTGATGACCAACGCCCTGTCGCGGGCCGCCGGCGGGCGCCGACTACCAGGCCAACACCCCACCAACGCGCGGTCGCGAGACACCCCACCAACGCCTGGTCGCGGGGGTGTCCGATCTGATTTCAGCAAAACTACTGCAGTAAGAA”, the “relative integration efficiency (log2)” value in data set [2] was under -10. For the sequence “AATGTTGTTGATGCAACCAGCCCTTGATATTTAATAATTATTTATAATCAGCAACTTAACCACAAAACAACCAGCGCGTGATATCTCACAAAACAACCAGCCTGTGATATTTTTGTGAATCGAGTATTTCAGCAAAACTACTGCAGTAAGAA”, the “relative integration efficiency (log2)” value in data set [2] was under -10. As for “AATGTTGTTGATGACCAACGCCTGGTCGCGGGGATAATTATTTATAATCAGCAACTTAACCACAAAACAACCATATATTGATATCTCACAAAAACCAACGCCCTGTCGCGGGCTGTGAATCGAGTATTTCAGCAAAACTACTGCAGTAAGAA”, the “relative integration efficiency (log2)” value in data set [2] was under -10. Still for that read-out and setting: the result for “AATGTTGTTGATGCCCAACGCCCTGTCGCGGGCCGCCGGCGGGCGCCGACTACCAGGCCAACACCCCACCAACGCGCGGTCGCGAGACACCCCACCAACGCCTGGTCGCGGGGGTGTCCGATCTGATTTCAGCAAAACTACTGCAGTAAGAA” reads under -10. The same measure, in the same setting: with “AATGTTGTTGATGCAACCATAAAGTGCGCGGGCCGCCGGCGGGCGCCGACTACCAGGCCAACACCCCACCAACGCGCGGTCGCGAGACACCCCACCAACGCCTGGTCGCGGGGGTGTCCGATCTGATTTCAGCAAAACTACTGCAGTAAGAA” the figure was under -10. Turning to “AATGTTGTTGATGCAACCATAAAGTGATATTTATTGACAGCTAGCTCAGTCCTAGGTATAATGCTAGCAACCATATATTGATATCTCACAAAACAACCATAAGTTGATATTTTTGTGAATCGAGTATTTCAGCAAAACTACTGCAGTAAGAA”, the “relative integration efficiency (log2)” value in data set [1] was -8.14 ± 0.72. With “AATGTTGTTGATGCAAAACGCCCTGTCGCGGGCCGCCGGCGGGCGCCGACTACCAGGCCAACACCCCACCAACGCGCGGTCGCGAGACACCCCACCAACGCCTGGTCGCGGGGGTGTCCGATCTGATTTCAGCAAAACTACTGCAGTAAGAA”, in data set [1], the “relative integration efficiency (log2)” value was under -10.

With “AATGTTGTTGATGCAACCATAAAGTGATATTTAATAATTATTTATAATCAGCCAACCATATATTGATATCTCACAAAACAACCATAAGTTGATATTTTAACTTAACCACAAAATGTGAATCGAGTATTTCAGCAAAACTACTGCAGTAAGAA”, the “relative integration efficiency (log2)” value in data set [1] is -6.91 ± 2.5. Turning to “AATGTTGTTGATGCAACCATAAATGTCGCGGGCCGCCGGCGGGCGCCGACTACCAGGCCAACACCCCACCAACGCGCGGTCGCGAGACACCCCACCAACGCCTGGTCGCGGGGGTGTCCGATCTGATTTCAGCAAAACTACTGCAGTAAGAA”, the “relative integration efficiency (log2)” value in data set [2] is under -10. For the sequence “AATGTTGTTGATGCAACCATAAAGTGATATTTAATAACTTCGTATAGTATACCTTATACGAAGTTATCAACCATATATTGATATCTCACAAAACAACCATAAGTTGATATTTTTGTGAATCGAGTATTTCAGCAAAACTACTGCAGTAAGAA”, in data set [1], the “relative integration efficiency (log2)” value is -3.19 ± 0.87. For “AATGTTGTTGATGCAACCATAAAGTGATATAATTATTTATAATCAGCAACTTAACCACAAAACAACCATATATTGATATCTCACAAAACAACCATAAGTTGATATTTTTGTGAATCGAGTATTTCAGCAAAACTACTGCAGTAAGAAAGTTA”, in data set [1], the “relative integration efficiency (log2)” value is -6.82 ± 0.68. Consider “AATGTTGTTGATGCAACCATAAAGTGATATTTAATAATTATTCAACCATAAAGTGATATTTAACTTACAACCATATATTGATATCTCACAAAACAACCATAAGTTGATATTTTTGTGAATCGAGTATTTCAGCAAAACTACTGCAGTAAGAA”, for which, in data set [1], the “relative integration efficiency (log2)” value was -3.81 ± 1.1. For “AATGTTGTTGATGCAACCATAAAGTGATATTTATATTCTAAATGTTGATTAATTTGAATCATCATCTCAACCATATATTGATATCTCACAAAACAACCATAAGTTGATATTTTTGTGAATCGAGTATTTCAGCAAAACTACTGCAGTAAGAA”, in data set [1], the “relative integration efficiency (log2)” value was -5.04 ± 1. With “AATGTTGTTGATGCAACCATAAAGTGATATTTAATAATTATTTATAATCAGCAACTTAACCCACCCCACCAACGCGCGGTCGCGAGACACCCCACCAACGCCTGGTCGCGGGGGTGTCCGATCTGATTTCAGCAAAACTACTGCAGTAAGAA”, the “relative integration efficiency (log2)” value in data set [1] is -6.3 ± 1.9. In the case of “AATGTTGTTGATGCAACCATAAAGTTCGCGGGCCGCCGGCGGGCGCCGACTACCAGGCCAACACCCCACCAACGCGCGGTCGCGAGACACCCCACCAACGCCTGGTCGCGGGGGTGTCCGATCTGATTTCAGCAAAACTACTGCAGTAAGAA”, the “relative integration efficiency (log2)” value in data set [2] was under -10.
